# Assay results reported in the supplement of paper PMC11316812.
# ± gives the standard deviation of the averaged measurements.
# Key:
# hTERT-HMEC = assay: percentage of EdU-negative (G0-arrested) nuclei per well, 72 h; higher = more G0 arrest; conditions: reference: sequence is the full UniProt precursor, the tested protein was the secreted form or ectodomain
# MCF7 = assay: as above; conditions: reference: sequence is the full UniProt precursor, the tested protein was the secreted form or ectodomain
# [1] = protein concentration 0.0128571 µM
# [2] = protein concentration 0.128571 µM
# [3] = protein concentration 0.01075 µM
# [4] = protein concentration 0.1075 µM
# [5] = protein concentration 0.0225 µM
# [6] = protein concentration 0.01207 µM
# [7] = protein concentration 0.1207 µM
# [8] = protein concentration 0.0075 µM
# [9] = protein concentration 0.0095 µM
# [10] = protein concentration 0.03125 µM
# [11] = protein concentration 0.3125 µM
# 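Note: secreted proteins added to cultured cells, EdU pulse at the end, nuclei found by Hoechst imaging, EdU status from nuclear versus surrounding ring intensity ratio, PBS as neutral control.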
sequence,measurement,setting,value
MGPRARPALLLLMLLQTAVLQGRLLRSHSLHYLFMGASEQDLGLSLFEALGYVDDQLFVFYDHESRRVEPRTPWVSSRISSQMWLQLSQSLKGWDHMFTVDFWTIMENHNHSKESHTLQVILGCEMQEDNSTEGYWKYGYDGQDHLEFCPDTLDWRAAEPRAWPTKLEWERHKIRARQNRAYLERDCPAQLQQLLELGRGVLDQQVPPLVKVTHHVTSSVTTLRCRALNYYPQNITMKWLKDKQPMDAKEFEPKDVLPNGDGTYQGWITLAVPPGEEQRYTCQVEHPGLDQPLIVIWEPSPSGTLVIGVISGIAVFVVILFIGILFIILRKRQGSRGAMGHYVLAERE,percentage of EdU-negative,hTERT-HMEC; [1],5.75 ± 0.3%
same,percentage of EdU-negative,hTERT-HMEC; [2],7.25 ± 1.1%
same,percentage of EdU-negative,MCF7; [1],25.8 ± 0.42%
same,percentage of EdU-negative,MCF7; [2],29 ± 1.8%
MEKMLAGCFLLILGQIVLLPAEARERSRGRSISRGRHARTHPQTALLESSCENKRADLVFIIDSSRSVNTHDYAKVKEFIVDILQFLDIGPDVTRVGLLQYGSTVKNEFSLKTFKRKSEVERAVKRMRHLSTGTMTGLAIQYALNIAFSEAEGARPLRENVPRVIMIVTDGRPQDSVAEVAAKARDTGILIFAIGVGQVDFNTLKSIGSEPHEDHVFLVANFSQIETLTSVFQKKLCTAHMCSTLEHNCAHFCINIPGSYVCRCKQGYILNSDQTTCRIQDLCAMEDHNCEQLCVNVPGSFVCQCYSGYALAEDGKRCVAVDYCASENHGCEHECVNADGSYLCQCHEGFALNPDKKTCTKIDYCASSNHGCQHECVNTDDSYSCHCLKGFTLNPDKKTCRRINYCALNKPGCEHECVNMEESYYCRCHRGYTLDPNGKTCSRVDHCAQQDHGCEQLCLNTEDSFVCQCSEGFLINEDLKTCSRVDYCLLSDHGCEYSCVNMDRSFACQCPEGHVLRSDGKTCAKLDSCALGDHGCEHSCVSSEDSFVCQCFEGYILREDGKTCRRKDVCQAIDHGCEHICVNSDDSYTCECLEGFRLAEDGKRCRRKDVCKSTHHGCEHICVNNGNSYICKCSEGFVLAEDGRRCKKCTEGPIDLVFVIDGSKSLGEENFEVVKQFVTGIIDSLTISPKAARVGLLQYSTQVHTEFTLRNFNSAKDMKKAVAHMKYMGKGSMTGLALKHMFERSFTQGEGARPLSTRVPRAAIVFTDGRAQDDVSEWASKAKANGITMYAVGVGKAIEEELQEIASEPTNKHLFYAEDFSTMDEISEKLKKGICEALEDSDGRQDSPAGELPKTVQQPTESEPVTINIQDLLSCSNFAVQHRYLFEEDNLLRSTQKLSHSTKPSGSPLEEKHDQCKCENLIMFQNLANEEVRKLTQRLEEMTQRMEALENRLRYR,percentage of EdU-negative,hTERT-HMEC; [3],5.94 ± 0.34%
same,percentage of EdU-negative,hTERT-HMEC; [4],6.49 ± 0.6%
same,percentage of EdU-negative,MCF7; [3],29.2 ± 1.9%
same,percentage of EdU-negative,MCF7; [4],24.3 ± 0.75%
MKLKLKNVFLAYFLVSIAGLLYALVQLGQPCDCLPPLRAAAEQLRQKDLRISQLQAELRRPPPAPAQPPEPEALPTIYVVTPTYARLVQKAELVRLSQTLSLVPRLHWLLVEDAEGPTPLVSGLLAASGLLFTHLVVLTPKAQRLREGEPGWVHPRGVEQRNKALDWLRGRGGAVGGEKDPPPPGTQGVVYFADDDNTYSRELFEEMRWTRGVSVWPVGLVGGLRFEGPQVQDGRVVGFHTAWEPSRPFPVDMAGFAVALPLLLDKPNAQFDSTAPRGHLESSLLSHLVDPKDLEPRAANCTRVLVWHTRTEKPKMKQEEQLQRQGRGSDPAIEV,percentage of EdU-negative,hTERT-HMEC; [5],6.2 ± 0.23%
same,percentage of EdU-negative,hTERT-HMEC; protein concentration 0.225 µM,9.73 ± 0.47%
same,percentage of EdU-negative,MCF7; [5],24 ± 0.88%
same,percentage of EdU-negative,MCF7; protein concentration 0.225 µM,27.1 ± 1.6%
MALFVRLLALALALALGPAATLAGPAKSPYQLVLQHSRLRGRQHGPNVCAVQKVIGTNRKYFTNCKQWYQRKICGKSTVISYECCPGYEKVPGEKGCPAALPLSNLYETLGVVGSTTTQLYTDRTEKLRPEMEGPGSFTIFAPSNEAWASLPAEVLDSLVSNVNIELLNALRYHMVGRRVLTDELKHGMTLTSMYQNSNIQIHHYPNGIVTVNCARLLKADHHATNGVVHLIDKVISTITNNIQQIIEIEDTFETLRAAVAASGLNTMLEGNGQYTLLAPTNEAFEKIPSETLNRILGDPEALRDLLNNHILKSAMCAEAIVAGLSVETLEGTTLEVGCSGDMLTINGKAIISNKDILATNGVIHYIDELLIPDSAKTLFELAAESDVSTAIDLFRQAGLGNHLSGSERLTLLAPLNSVFKDGTPPIDAHTRNLLRNHIIKDQLASKYLYHGQTLETLGGKKLRVFVYRNSLCIENSCIAAHDKRGRYGTLFTMDRVLTPPMGTVMDVLKGDNRFSMLVAAIQSAGLTETLNREGVYTVFAPTNEAFRALPPRERSRLLGDAKELANILKYHIGDEILVSGGIGALVRLKSLQGDKLEVSLKNNVVSVNKEPVAEPDIMATNGVVHVITNVLQPPANRPQERGDELADSALEIFKQASAFSRASQRSVRLAPVYQKLLERMKH,percentage of EdU-negative,hTERT-HMEC; [6],5.243 ± 0.015%
same,percentage of EdU-negative,hTERT-HMEC; [7],4.82 ± 0.7%
same,percentage of EdU-negative,MCF7; [6],25.4 ± 0.46%
same,percentage of EdU-negative,MCF7; [7],28.3 ± 0.63%
MKMRRYKLFLMFCMAGLCLISFLHFFKTLSYVTFPRELASLSPNLVSSFFWNNAPVTPQASPEPGGPDLLRTPLYSHSPLLQPLPPSKAAEELHRVDLVLPEDTTEYFVRTKAGGVCFKPGTKMLERPPPGRPEEKPEGANGSSARRPPRYLLSARERTGGRGARRKWVECVCLPGWHGPSCGVPTVVQYSNLPTKERLVPREVPRRVINAINVNHEFDLLDVRFHELGDVVDAFVVCESNFTAYGEPRPLKFREMLTNGTFEYIRHKVLYVFLDHFPPGGRQDGWIADDYLRTFLTQDGVSRLRNLRPDDVFIIDDADEIPARDGVLFLKLYDGWTEPFAFHMRKSLYGFFWKQPGTLEVVSGCTVDMLQAVYGLDGIRLRRRQYYTMPNFRQYENRTGHILVQWSLGSPLHFAGWHCSWCFTPEGIYFKLVSAQNGDFPRWGDYEDKRDLNYIRGLIRTGGWFDGTQQEYPPADPSEHMYAPKYLLKNYDRFHYLLDNPYQEPRSTAAGGWRHRGPEGRPPARGKLDEAEV,percentage of EdU-negative,hTERT-HMEC; [8],5.484 ± 0.037%
same,percentage of EdU-negative,hTERT-HMEC; protein concentration 0.075 µM,8.45 ± 1.1%
same,percentage of EdU-negative,MCF7; [8],24.8 ± 2.6%
same,percentage of EdU-negative,MCF7; protein concentration 0.075 µM,29.1 ± 1.5%
MKFQGPLACLLLALCLGSGEAGPLQSGEESTGTNIGEALGHGLGDALSEGVGKAIGKEAGGAAGSKVSEALGQGTREAVGTGVRQVPGFGVADALGNRVGEAAHALGNTGHEIGRQAEDVIRHGADAVRGSWQGVPGHNGAWETSGGHGIFGSQGGLGGQGQGNPGGLGTPWVHGYPGNSAGSFGMNPQGAPWGQGGNGGPPNFGTNTQGAVAQPGYGSVRASNQNEGCTNPPPSGSGGGSSNSGGGSGSQSGSSGSGSNGDNNNGSSSGGSSSGSSSGGSSGGSSGGSSGNSGGSRGDSGSESSWGSSTGSSSGNHGGSGGGNGHKPGCEKPGNEARGSGESGIQNSETSPGMFNFDTFWKNFKSKLGFINWDAINKNQVPPPSTRALLYFSRLWEDFKQNTPFLNWKAIIEGADASSLQKRAGRDDQNYNYNQHAYPTAYGGKYSVKTPAKGGVSPSSSASRVQPGLLQWVKFW [Q6E0U4],percentage of EdU-negative,hTERT-HMEC; [9],4.68 ± 0.29%
same,percentage of EdU-negative,hTERT-HMEC; protein concentration 0.095 µM,24.6 ± 4.2%
same,percentage of EdU-negative,MCF7; [9],27.8 ± 1.4%
same,percentage of EdU-negative,MCF7; protein concentration 0.095 µM,27.7 ± 1.7%
MGHPPLLPLLLLLHTCVPASWGLRCMQCKTNGDCRVEECALGQDLCRTTIVRLWEEGEELELVEKSCTHSEKTNRTLSYRTGLKITSLTEVVCGLDLCNQGNSGRAVTYSRSRYLECISCGSSDMSCERGRHQSLQCRSPEEQCLDVVTHWIQEGEEGRPKDDRHLRGCGYLPGCPGSNGFHNNDTFHFLKCCNTTKCNEGPILELENLPQNGRQCYSCKGNSTHGCSSEETFLIDCRGPMNQCLVATGTHEPKNQSYMVRGCATASMCQHAHLGDAFSMNHIDVSCCTKSGCNHPDLDVQYRSGAAPQPGPAHLSLTITLLMTARLWGGTLLWT,percentage of EdU-negative,hTERT-HMEC; [10],5.81 ± 0.25%
same,percentage of EdU-negative,hTERT-HMEC; [11],5.79 ± 0.076%
same,percentage of EdU-negative,MCF7; [10],23.5 ± 1.9%
same,percentage of EdU-negative,MCF7; [11],21 ± 1.2%
